Substitutions are numbered along the chain they refer to. Where two headings read alike, the source gives them in different places. One block for each binder: values may come before it.
Key:
[1] = target: T1, soluble human GPC3 (human, UniProt P51654 25-563, limits assumed); test: SPR (Biacore), single-arm antibody, soluble human GPC3
T1 construct: also called glypican 3

[2] = target: T1, soluble human GPC3; test: as above; remark: listed apart in the source

T1 sequence (P51654 other isoform, or with tags, fused parts or gaps limits assumed, form in doubt): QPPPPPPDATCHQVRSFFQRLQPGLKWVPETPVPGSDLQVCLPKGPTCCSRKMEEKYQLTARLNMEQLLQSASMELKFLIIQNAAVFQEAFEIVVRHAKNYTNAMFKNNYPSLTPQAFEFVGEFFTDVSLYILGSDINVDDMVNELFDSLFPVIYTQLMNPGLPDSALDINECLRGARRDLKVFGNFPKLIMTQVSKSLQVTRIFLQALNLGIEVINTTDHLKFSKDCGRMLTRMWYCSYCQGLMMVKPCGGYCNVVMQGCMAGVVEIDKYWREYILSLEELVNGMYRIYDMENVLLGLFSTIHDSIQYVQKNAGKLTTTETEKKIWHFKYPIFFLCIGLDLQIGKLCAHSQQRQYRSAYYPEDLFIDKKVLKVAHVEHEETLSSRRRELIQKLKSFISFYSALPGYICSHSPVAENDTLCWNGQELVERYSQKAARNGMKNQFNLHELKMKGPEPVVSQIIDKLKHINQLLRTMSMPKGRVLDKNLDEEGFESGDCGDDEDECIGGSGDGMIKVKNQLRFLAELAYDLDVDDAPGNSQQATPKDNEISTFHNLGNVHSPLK

Kd [1]: 4.54 nM
B2: GCH094-G1dh/none-Hi-Kn010G3/L0011-k0 (antibody, human IgG1, kappa)
heavy: not shown
chain: EPKSSDKTHTCPPCPAPELLGGPSVFLFPPKPKDTLMISRTPEVTCVVVDVSHEDPEVKFNWYVDGVEVHNAKTKPREEQYNSTYRVVSVLTVLHQDWLNGKEYKCKVSNKALPAPIEKTISKAKGQPREPQVCTLPPSRDELTKNQVSLWCLVKGFYPSDIAVEWESNGQPENNYKTTPPVLDSDGSFFLYSKLTVDKSRWQQGNVFSCSVMHEALHNRYTQKSLSLSP
light: DIVMTQSPLSLPVTPGEPASISCRSSQPLVHSNRNTYLHWYQQKPGQAPRLLIYKVSNRFSGVPDRFSGSGSGTDFTLKISRVEAEDVGVYYCGQGTQVPYTFGQGTKLEIKRTVAAPSVFIFPPSDEQLKSGTASVVCLLNNFYPREAKVQWKVDNALQSGNSQESVTEQDSKDSTYSLSSTLTLSKADYEKHKVYACEVTHQGLSSPVTKSFNRGEC
notes: single-arm antibody

Kd [1]: 0.884 nM
B3: GCH065-G1dh/none-Hi-Kn010G3/L0011-k0 (antibody, human IgG1, kappa)
heavy: not shown
chain: B2 chain
light: B2 light
notes: single-arm antibody

Further lines, the binder ahead of its results:

B1: H0610-G1dh/none-Hi-Kn010G3/L0000-k0 (antibody, human IgG1, kappa)
heavy: not shown
chain: B2 chain
light: B2 light with P28S
notes: single-arm antibody
Kd [1]: 4.16 nM

B4: GCH054-G1dh/none-Hi-Kn010G3/L0011-k0 (antibody, human IgG1, kappa)
heavy: not shown
chain: B2 chain
light: B2 light
notes: single-arm antibody
Kd [1]: 5.25 nM
Kd [2]: 5.25 nM

From patent US20210388110A1 (published 2021)
